Experimental data from IntAct's records for PubMed 11231056.

B1: Platelet-activating factor acetylhydrolase IB subunit beta (Mus musculus), P63005 (parent)
chain: MVLSQRQRDELNRAIADYLRSNGYEEAYSVFKKEAELDMNEELDKKYAGLLEKKWTSVIRLQKKVMELESKLNEAKEEFTSGGPLGQKRDPKEWIPRPPEKYALSGHRSPVTRVIFHPVFSVMVSASEDATIKVWDYETGDFERTLKGHTDSVQDISFDHSGKLLASCSADMTIKLWDFQGFECIRTMHGHDHNVSSVAIMPNGDHIVSASRDKTIKMWEVQTGYCVKTFTGHREWVRMVRPNQDGTLIASCSNDQTVRVWVVATKECKAELREHEHVVECISWAPESSYSSISEATGSETKKSGKPGPFLLSGSRDKTIKMWDVSTGMCLMTLVGHDNWVRGVLFHSGGKFILSCADDKTLRVWDYKNKRCMKTLNAHEHFVTSLDFHKTAPYVVTGSVDQTVKVWECR
partner: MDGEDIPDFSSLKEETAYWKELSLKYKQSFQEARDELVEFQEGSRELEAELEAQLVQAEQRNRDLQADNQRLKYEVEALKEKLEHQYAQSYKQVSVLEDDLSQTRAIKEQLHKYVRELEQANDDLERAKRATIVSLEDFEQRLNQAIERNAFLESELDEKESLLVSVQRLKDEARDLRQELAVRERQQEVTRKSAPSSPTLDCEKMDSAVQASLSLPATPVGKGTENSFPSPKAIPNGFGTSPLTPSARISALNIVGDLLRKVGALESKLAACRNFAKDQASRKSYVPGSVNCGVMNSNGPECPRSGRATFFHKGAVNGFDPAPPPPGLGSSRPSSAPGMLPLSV

Variants of: B1
Conditions: with ndel1_mouse Ndel1, Q9ERR1

Effect of a mutation on the interaction, disrupting interaction:
MVLSQRQRDELNRAIADYLRSNGYEEAYSVFKKEAELDMNEELDKKYAGLLEKKWTSVIRLQKKVMELESKLNEAKEEFTSGGPLGQKRDPKEWIPRPPEKYALSGHRSPVTRVIFHPVFSVMVSASEDATIKVWDYETGDFERTLKGHTDWVQDISFDHSGKLLASCSADMTIKLWDFQGFECIRTMHGHDHNVSSVAIMPNGDHIVSASRDKTIKMWEVQTGYCVKTFTGHREWVRMVRPNQDGTLIASCSNDQTVRVWVVATKECKAELREHEHVVECISWAPESSYSSISEATGSETKKSGKPGPFLLSGSRDKTIKMWDVSTGMCLMTLVGHDNWVRGVLFHSGGKFILSCADDKTLRVWDYKNKRCMKTLNAHEHFVTSLDFHKTAPYVVTGSVDQTVKVWECR [S152W]
MVLSQRQRDELNRAIADYLRSNGYEEAYSVFKKEAELDMNEELDKKYAGLLEKKWTSVIRLQKKVMELESKLNEAKEEFTSGGPLGQKRDPKEWIPRPPEKYALSGHRSPVTRVIFHPVFSVMVSASEDATIKVWDYETGDFERTLKGRTDSVQDISFDHSGKLLASCSADMTIKLWDFQGFECIRTMHGHDHNVSSVAIMPNGDHIVSASRDKTIKMWEVQTGYCVKTFTGHREWVRMVRPNQDGTLIASCSNDQTVRVWVVATKECKAELREHEHVVECISWAPESSYSSISEATGSETKKSGKPGPFLLSGSRDKTIKMWDVSTGMCLMTLVGHDNWVRGVLFHSGGKFILSCADDKTLRVWDYKNKRCMKTLNAHEHFVTSLDFHKTAPYVVTGSVDQTVKVWECR [H149R]
MVLSQRQRDELNRAIADYLRSNGYEEAYSVFKKEAELDMNEELDKKYAGLLEKKWTSVIRLQKKVMELESKLNEAKEEFTSGGPLGQKRDPKEWIPRPPEKYALSGHRSPVTRVIFHPVFSVMVSASEDATIKVWDYETGDFERTLKGHTDSVQDISFDHSGKLLASCPADMTIKLWDFQGFECIRTMHGHDHNVSSVAIMPNGDHIVSASRDKTIKMWEVQTGYCVKTFTGHREWVRMVRPNQDGTLIASCSNDQTVRVWVVATKECKAELREHEHVVECISWAPESSYSSISEATGSETKKSGKPGPFLLSGSRDKTIKMWDVSTGMCLMTLVGHDNWVRGVLFHSGGKFILSCADDKTLRVWDYKNKRCMKTLNAHEHFVTSLDFHKTAPYVVTGSVDQTVKVWECR [S169P]
